# Data from FireProtDB (doi:10.1073/pnas.0911904107).
# B1: Lipid A palmitoyltransferase PagP, P37001 (parent)
# chain: MNVSKYVAIFSFVFIQLISVGKVFANADEWMTTFRENIAQTWQQPEHYDLYIPAITWHARFAYDKEKTDRYNERPWGGGFGLSRWDEKGNWHGLYAMAFKDSWNKWEPIAGYGWESTWRPLADENFHLGLGFTAGVTARDNWNYIPLPVLLPLASVGYGPVTFQMTYIPGTYNNGNVYFAWMRFQF
# Variants of: B1
# Conditions: Escherichia coli (strain K12), pH 8, 25 °C, Urea, CD, structure 1THQ, whole UniProt chain shown
# [1] = Sodium phosphate 50 mM, reversible: Yes
# [2] = sodium phosphate buffer, transition: 2, reversible: yes
Variant,ddG of mutation (higher = less stable) [1] [kcal/mol],denaturant midpoint (higher = more stable) [1] [M],unfolding free energy [1] [kcal/mol],ddG of mutation (higher = less stable) [2] [kcal/mol],denaturant midpoint (higher = more stable) [2] [M],unfolding free energy [2] [kcal/mol]
MNVSKYVAIFSFVFIQLISVGKVFANADEWMTTFRENIAQTWQQPEHYDLYIPAITWHARFAYDKEKTDRYNERPAGGGFGLSRWDEKGNWHGLYAMAFKDSWNKWEPIAGYGWESTWRPLADENFHLGLGFTAGVTARDNWNYIPLPVLLPLASVGYGPVTFQMTYIPGTYNNGNVYFAWMRFQF [W76A],0.45,8.5,13.9,5.88,8.5,8.5
MNVSKYVAIFSFVFIQLISVGKVFANADEWMTTFRENIAQTWQQPEHYDLYIPAITWHARFAYDKEKTDRYNERPWGGGFGLSRWDEKGNWHGLYAAAFKDSWNKWEPIAGYGWESTWRPLADENFHLGLGFTAGVTARDNWNYIPLPVLLPLASVGYGPVTFQMTYIPGTYNNGNVYFAWMRFQF [M97A],0.34,8.56,14,5.82,8.56,8.56
MNVSKYVAIFSFVFIQLISVGKVFANADEWMTTFRENIAQTWQQPEHADLYIPAITWHARFAYDKEKTDRYNERPWGGGFGLSRWDEKGNWHGLYAMAFKDSWNKWEPIAGYGWESTWRPLADENFHLGLGFTAGVTARDNWNYIPLPVLLPLASVGYGPVTFQMTYIPGTYNNGNVYFAWMRFQF [Y48A],0.91,8.22,13.5,6.16,8.22,8.22
MNVSKYVAIFSFVFIQLISVGKVFANADEWMTTFRENIAQTWQQPEHYDLYIPAITWHARFAYDKEKTDRYNERPWGGGFGLSRWDEKGNWHGLYAMAFKDSWNKWEPIAGYGWESTWRPLADENFHLGLGFTAGVTARDNWNYIPLPVLLPLAAVGYGPVTFQMTYIPGTYNNGNVYFAWMRFQF [S155A],1.27,8,13.1,6.38,8,8
MNVSKYVAIFSFVFIQLISVGKVFANADEWMTTFRENIAQTWQQPEHYDLYIPAITWHARFAYDKEKTDRYNERPWGGGFGLARWDEKGNWHGLYAMAFKDSWNKWEPIAGYGWESTWRPLADENFHLGLGFTAGVTARDNWNYIPLPVLLPLASVGYGPVTFQMTYIPGTYNNGNVYFAWMRFQF [S83A],1.26,8.01,13.1,6.37,8.01,8.01
MNVSKYVAIFSFVFIQLISVGKVFANADEWMTTFRENIAQTWQQPEHYNLYIPAITWHARFAYDKEKTDRYNERPWGGGFGLSRWDEKGNWHGLYAMAFKDSWNKWEPIAGYGWESTWRPLADENFHLGLGFTAGVTARDNWNYIPLPVLLPLASVGYGPVTFQMTYIPGTYNNGNVYFAWMRFQF [D49N],0.6,8.4,13.8,5.98,8.4,8.4
MNVSKYVAIFSFVFIQLISVGKVFANADEWMTTFRENIAQTWQQPEHYDLYIPAITWHARFAYDKEKTDRYNERPWGGGFGLSRWDEKGNWHGLYAMAFKDSWNKWEPIAGYGWESTWRPLADENFHLGAGFTAGVTARDNWNYIPLPVLLPLASVGYGPVTFQMTYIPGTYNNGNVYFAWMRFQF [L130A],0.76,8.3,13.6,6.08,8.3,8.3
